Read-outs that look alike come from different tables or passages of the source. Non-standard residues stand in square brackets, D forms with d. No end group written: not given here. pY = N[C@@H](Cc1ccc(OP(=O)(O)O)cc1)C(=O)O
How the values were obtained:
[1] = target: T1, hCIS-SH2-BC complex (recombinant trimeric complex of human GST-CIS-SH2 construct with Elongins B and C) (UniProt Q9NSE2 66-258; Q15370 1-118; Q15369 17-112); assay: ITC
[2] = target: T1, hCIS-SH2-BC complex (recombinant …); assay: ITC; remark: listed apart in the source

Binder	Kd [1] [µM]	Kd [2] [µM]
EIEACQV[pY]FTYDPYSE [phosphopeptide corresponding to Tyr355 within the IL-2Rβ (printed 'IL-2R13') cytoplasmic domain]	0.94	0.94
VYFTYDP[pY]SEEDPDEG [phosphopeptide corresponding to Tyr361 within the IL-2Rβ (printed 'IL-2R13') cytoplasmic domain]	1.5	1.5
LSGEDDA[pY]CTFPSRDD [phosphopeptide corresponding to Tyr392 within the IL-2Rβ (printed 'IL-2R13') cytoplasmic domain]	1.8	1.8

Source: patent publication US20230192857A1 (published 2023)
